Experiments:
HLA-B*18:01 = assay: IEDB peptide-MHC binding, purified MHC/competitive/radioactivity; filed as Kd, often an IC50 or EC50 that approximates it; ≥ and ≤ were set here for values at or beyond the usual limits of such assays
HLA-B*40:01 = assay: as above
HLA-B*40:02 = assay: as above
HLA-B*44:02 = assay: as above
HLA-B*44:03 = assay: as above
HLA-B*45:01 = assay: as above
HLA-B*15:01 [1] = assay: as above
HLA-A*23:01 = assay: as above; conditions: source organism: Dengue virus 3 Sri Lanka/1266/2000
HLA-A*24:02 = assay: as above; conditions: source organism: Dengue virus 3 Sri Lanka/1266/2000
HLA-B*35:01 = assay: as above; conditions: source organism: Dengue virus 3 Sri Lanka/1266/2000
HLA-B*53:01 = assay: as above; conditions: source organism: Dengue virus 3 Sri Lanka/1266/2000
HLA-A*02:01 = assay: as above
HLA-A*02:02 = assay: as above; conditions: source organism: Vaccinia virus WR
HLA-A*02:03 = assay: as above
HLA-A*02:06 = assay: as above
HLA-B*15:01 [2] = assay: IEDB peptide-MHC binding, purified MHC/competitive/fluorescence; filed as Kd, often an IC50 or EC50 that approximates it; ≥ and ≤ were set here for values at or beyond the usual limits of such assays
HLA-A*32:01 = assay: IEDB peptide-MHC binding, purified MHC/competitive/radioactivity; filed as Kd, often an IC50 or EC50 that approximates it; ≥ and ≤ were set here for values at or beyond the usual limits of such assays; conditions: source organism: Vaccinia virus WR
HLA-A*68:02 = assay: as above; conditions: source organism: Homo sapiens
HLA-B*08:01 = assay: as above; conditions: source organism: Dengue virus 3 Martinique/1243/1999
[3] = source organism: SARS coronavirus Tor2
[4] = source organism: Vaccinia virus WR
[5] = source organism: Dengue virus 3 Martinique/1243/1999
[6] = source organism: Mammarenavirus machupoense
[7] = source organism: Lassa virus Josiah
[8] = source organism: Mammarenavirus juninense

## GDYFVLTSHT
HLA-B*18:01; [3]
  Kd: ≥ 70500 nM
HLA-B*40:01; [3]
  Kd: ≥ 69600 nM
HLA-B*40:02; [3]
  Kd: ≥ 37700 nM
HLA-B*44:02; [3]
  Kd: ≥ 50900 nM
HLA-B*44:03; [3]
  Kd: ≥ 22600 nM
HLA-B*45:01; [3]
  Kd: ≥ 70000 nM

## NAHKLILSG
HLA-B*15:01 [1]; [4]
  Kd: 18100 nM

## KLHSGVDVF
HLA-B*15:01 [1]; source organism: Dengue virus 4 Philippines/H241/1956
  Kd: 7.72 nM

## MMILPAALAF
HLA-A*23:01
  Kd: 119 nM
HLA-A*24:02
  Kd: 916 nM
HLA-B*15:01 [1]; source organism: Dengue virus 3 Sri Lanka/1266/2000
  Kd: 2.41 nM
HLA-B*35:01
  Kd: 1490 nM
HLA-B*53:01
  Kd: 6480 nM

## FERDISNVPF
HLA-B*18:01; [3]
  Kd: 32 nM
HLA-B*40:01; [3]
  Kd: 20.3 nM
HLA-B*40:02; [3]
  Kd: 1950 nM
HLA-B*44:02; [3]
  Kd: 578 nM
HLA-B*44:03; [3]
  Kd: 629 nM
HLA-B*45:01; [3]
  Kd: 6400 nM

## MSIDHCSSF
HLA-B*15:01 [1]; [4]
  Kd: 0.952 nM

## IQNSGGTSI
HLA-B*15:01 [1]; [5]
  Kd: 25.7 nM

## SEAFLIGANY
HLA-B*18:01; [3]
  Kd: 4.42 nM
HLA-B*40:01; [3]
  Kd: ≥ 10000 nM
HLA-B*40:02; [3]
  Kd: 348 nM
HLA-B*44:02; [3]
  Kd: 8.47 nM
HLA-B*44:03; [3]
  Kd: 3.75 nM
HLA-B*45:01; [3]
  Kd: 578 nM

## RIEDMFLTSV
HLA-A*02:01; [4]
  Kd: 48 nM
HLA-A*02:02
  Kd: 548 nM
HLA-A*02:03; [4]
  Kd: 71 nM
HLA-A*02:06; [4]
  Kd: 168 nM

## RECYAQRFYL
HLA-B*18:01; [6]
  Kd: 137 nM
HLA-B*40:01; [6]
  Kd: 9580 nM
HLA-B*40:02; [6]
  Kd: 5.55 nM
HLA-B*44:02; [6]
  Kd: 525 nM
HLA-B*44:03; [6]
  Kd: 250 nM
HLA-B*45:01; [6]
  Kd: 1440 nM

## AVDLSHFL
HLA-B*15:01 [2]; source organism: Chloroflexus aurantiacus J-10-fl
  Kd: ≥ 20000 nM

## PENQEDPLVL
HLA-B*18:01; [6]
  Kd: ≥ 70400 nM
HLA-B*40:01; [6]
  Kd: ≥ 39500 nM
HLA-B*40:02; [6]
  Kd: ≥ 70800 nM
HLA-B*44:02; [6]
  Kd: ≥ 70200 nM
HLA-B*44:03; [6]
  Kd: ≥ 70100 nM
HLA-B*45:01; [6]
  Kd: ≥ 70000 nM

## MEVQSLAMST
HLA-B*18:01; [3]
  Kd: 969 nM
HLA-B*40:01; [3]
  Kd: 2060 nM
HLA-B*40:02; [3]
  Kd: ≥ 20100 nM
HLA-B*44:02; [3]
  Kd: 7210 nM
HLA-B*44:03; [3]
  Kd: 951 nM
HLA-B*45:01; [3]
  Kd: 259 nM

## LTFDYVVTF
HLA-A*32:01
  Kd: 17.2 nM
HLA-B*15:01 [1]; [4]
  Kd: 2.45 nM

## RSSMKLLSY
HLA-B*15:01 [2]; source organism: Yersinia pestis Nepal516
  Kd: 88.6 nM

## NEKVAGFAKF
HLA-B*18:01; [3]
  Kd: 1560 nM
HLA-B*40:01; [3]
  Kd: ≥ 53700 nM
HLA-B*40:02; [3]
  Kd: ≥ 70800 nM
HLA-B*44:02; [3]
  Kd: 37.9 nM
HLA-B*44:03; [3]
  Kd: 527 nM
HLA-B*45:01; [3]
  Kd: 18800 nM

## AEAQMSIQLI
HLA-B*18:01; [7]
  Kd: ≥ 23500 nM
HLA-B*40:01; [7]
  Kd: 1300 nM
HLA-B*40:02; [7]
  Kd: 53.9 nM
HLA-B*44:02; [7]
  Kd: 34.6 nM
HLA-B*44:03; [7]
  Kd: 69.1 nM
HLA-B*45:01; [7]
  Kd: 78.9 nM

## ELRLLIHQSL
HLA-A*02:01; source organism: Homo sapiens
  Kd: 1510 nM
HLA-A*02:03; source organism: Homo sapiens
  Kd: 1580 nM
HLA-A*68:02
  Kd: 1130 nM

## NDFVSDADST
HLA-B*18:01; [3]
  Kd: ≥ 70500 nM
HLA-B*40:01; [3]
  Kd: ≥ 69600 nM
HLA-B*40:02; [3]
  Kd: ≥ 70800 nM
HLA-B*44:02; [3]
  Kd: ≥ 32700 nM
HLA-B*44:03; [3]
  Kd: ≥ 70100 nM
HLA-B*45:01; [3]
  Kd: 2600 nM

## QALTDLGLI
HLA-A*02:01; source organism: Lassa virus GA391
  Kd: 3570 nM

## LLWFLTGTF
HLA-A*32:01
  Kd: 93 nM
HLA-B*15:01 [1]; [4]
  Kd: 0.776 nM

## ELEALKTEL
HLA-A*02:01; source organism: Homo sapiens
  Kd: ≥ 54300 nM
HLA-A*02:06; source organism: Homo sapiens
  Kd: ≥ 64600 nM
HLA-A*68:02
  Kd: 15900 nM

## EELIKLRFWF
HLA-B*18:01; [8]
  Kd: 748 nM
HLA-B*40:01; [8]
  Kd: ≥ 36700 nM
HLA-B*40:02; [8]
  Kd: 10400 nM
HLA-B*44:02; [8]
  Kd: 680 nM
HLA-B*44:03; [8]
  Kd: 132 nM
HLA-B*45:01; [8]
  Kd: 9880 nM

## EEVAIILASF
HLA-B*18:01; [3]
  Kd: 108 nM
HLA-B*40:01; [3]
  Kd: 3430 nM
HLA-B*40:02; [3]
  Kd: 406 nM
HLA-B*44:02; [3]
  Kd: 77.6 nM
HLA-B*44:03; [3]
  Kd: 19.2 nM
HLA-B*45:01; [3]
  Kd: 1390 nM

## LGLNKIVRMY
HLA-B*15:01 [2]; source organism: Human immunodeficiency virus 1
  Kd: 1960 nM

## LQWIASAIVL
HLA-B*08:01
  Kd: 4970 nM
HLA-B*15:01 [1]; [5]
  Kd: 6.43 nM

## MELPTGVHA
HLA-B*18:01; [3]
  Kd: 18000 nM
HLA-B*40:01; [3]
  Kd: ≥ 24900 nM
HLA-B*40:02; [3]
  Kd: 2740 nM
HLA-B*44:02; [3]
  Kd: 7800 nM
HLA-B*44:03; [3]
  Kd: 13800 nM
HLA-B*45:01; [3]
  Kd: 78.9 nM
